Source: publication doi:10.1101/2023.03.27.534461 (bioRxiv, 2023)

Target: the molecule itself
Experiment: cryo-EM structure; 100 nM unmodified nucleosome with 10 μM Bre1-Bre1-Rad6 fusion protein, 20 mM HEPES pH 7.5, 50 mM NaCl, 1 mM DTT, room temperature 30 min; cross-linked with glutaraldehyde, then Superdex 200; three states resolved

B1: Bre1 591–700 (domain or fragment, yeast, UniProt Q07457 591-700, looked up)
chain: KLNDTEIELKHFKQKASHLESKCEKLHDTLFRGNNKNKGSSDEALVEELANFRTLVYCSLCSKNWKNMAIKTCGHVFCENCCKERLAARMRKCPTCNKAFSSNDLLTVHL
notes: Bre1, yeast E3 ubiquitin ligase, residues 591-700: coiled coil that mediates dimerization and RING domain; In the structure the two copies of Bre1(591-700) stood on one chain of the fusion m1, joined by a (GGS)4 linker; written here as a molecule of its own for the pairs Bre1 with H2A and Bre1 with Bre1; also called Bre1-A; Bre1-B; source: E. coli BL21(DE3)Rosetta2, purified, as part of the …
B1: binds.
